Earlier results on one substance are cited in patent US12233109B2, “Long-acting GLP-1r agonist as a therapy of neurological and neurodegenerative conditions” (The Johns Hopkins University, priority 2015, dated 2025).

The conditions of this data set: in vivo.

Take “Albiglutide: dipeptidyl peptidase-4-resistant glucagon-like peptide-1 dimer fused to human albumin”: the half-life result is “four to seven”.
